The text below walks through data of the RNAGym collection of RNA variant scans (doi:10.1093/nar/gkz1192).

B1: CPEB3 Ribozyme (parent)
chain: UAACAGGGGGCCACAGCAGAAGCGUUCACGUCGCAGCCCCUGUCAGAUUCUGGUGAAUCUGCGAAUUCUGCUGUAUAUCUC

In the data set the parent is B1. Briefly: self-cleavage, relative activity (ratio to wild type); higher = more cleavage; in vitro, sequencing. The method, boiled down: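 CPEB3 self-cleaving ribozyme mutant libraries were made by rounds of error-prone PCR, barcoded, and transcribed in vitro with T7 RNA polymerase for 5 hours at 37°C. Cleavage occurred during transcription and a 15 min DNase I step before EDTA stop. RNAs were reverse transcribed with template switching and Illumina-sequenced, with DNA sequencing mapping barcodes to variants. Relative activity is the variant's cleaved/total read fraction divided by wild type's (minimum 5 reads), averaged across three batches.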
With G10A C40A, the self-cleavage is 0.19. In the case of C29U C38U it was 0.16; in that of A2C U76C, 1.02; in that of C23G U58C, 0.21. Turning to U25A, the self-cleavage was determined as 0.3. On to U67G U80A, for which the self-cleavage stood at 0.4. The same measure for A18U A20U: 0.25.

For A18C U48C, the self-cleavage was determined as 0.25. Turning to C37U C59A, the self-cleavage amounted to 0.22.

For A3G C29A, the self-cleavage was determined as 0.58. As for G63U U80C, the self-cleavage was found to be 1.11. Consider G19A A20U, for which the self-cleavage turned out to be 0.11. U31G U69A: the self-cleavage worked out at 0.22. Take G19A U51A: the self-cleavage turned out to be 0.31. For C23A U76C, the self-cleavage amounted to 0.21. Take C50G U69C: the self-cleavage was 0.14. U1G A64C: the self-cleavage was determined as 0.26. As to C11G C39A, the self-cleavage came to 0.38.

In the case of G6A U80C, the self-cleavage was 0.45. U41A G42A: the self-cleavage is 0.37. For U69A A75G, the self-cleavage was 0.53. The same measure for U25A U69A: 0.27; for C11A: 0.37; for C11G: 0.52. Regarding A18G G70C, the self-cleavage came to 0.13.

Consider A35G G73A, for which the self-cleavage was found to be 1.46. Regarding A20G G55U, the self-cleavage was determined as 0.62. Consider G6A A57G, for which the self-cleavage was 0.34. As for U26C A47G, the self-cleavage is 0.48. For A35U U69C, the self-cleavage is 0.23. For the variant C39U A47U, the self-cleavage turned out to be 0.42.

For the variant G7A C37A, the self-cleavage was 0.11. With U76A A77G, the self-cleavage came to 1.01.

On to U76A A77U, for which the self-cleavage came out at 1.01.

Consider G19U G61C, for which the self-cleavage stood at 0.13. For C14G U25C, the self-cleavage came to 0.17.

Consider G30A G36A, for which the self-cleavage was 0.4.

C11U A18C: the self-cleavage is 0.39.

With U48C C62U, the self-cleavage stood at 0.33.

As for A13U U31G, the self-cleavage is 0.66. The same measure for U1C U74C: 1.21; for U58C A75U: 0.7.

For G7C U66C, the self-cleavage was 0.5.

Consider A57G U72G, for which the self-cleavage was 1.01. As for A57U U69A, the self-cleavage was 0.4. In the case of C12U U54G, the self-cleavage was determined as 1.01. On to U1C G63A, for which the self-cleavage was 0.84. The same measure for G30U A77G: 0.16. As for U51C A65U, the self-cleavage worked out at 0.27. The same measure for A15C A18C: 0.35; for U48A U60A: 0.31; for C39U A57G: 0.27. In the case of G10U A56G it was 0.16; in that of U58A G73A, 1.1. Regarding G9A A65G, the self-cleavage turned out to be 0.22. Consider G16C U66C, for which the self-cleavage stood at 0.16. With A20U A77U, the self-cleavage was determined as 0.28. On to C40A G42U, for which the self-cleavage turned out to be 0.31. For U49C U54G, the self-cleavage stood at 0.25. As for A13G A65C, the self-cleavage stood at 0.56.

As to A28G G63A, the self-cleavage stood at 0.38.

In the case of U41A A57U, the self-cleavage is 0.13. Regarding A21U U25A, the self-cleavage was determined as 0.22.

For the variant U54C, the self-cleavage turned out to be 1.02. On to U26G U76A, for which the self-cleavage turned out to be 0.32. On to U1C A77U, for which the self-cleavage came to 0.97. Turning to U66G U80A, the self-cleavage came to 0.67.

For G42A U67A, the self-cleavage was 0.14. For the variant A35G U54G, the self-cleavage amounted to 1.32. For the variant U43A A57C, the self-cleavage came out at 0.47. For G19U U72G, the self-cleavage turned out to be 0.4. As for U78C C79G, the self-cleavage stood at 1.18. Regarding U54C A56G, the self-cleavage stood at 0.64. For the variant C34G U49A, the self-cleavage turned out to be 0.24. Turning to A56G U72A, the self-cleavage stood at 0.64. In the case of C32A A47G it was 0.14; in that of A21C U51C, 0.19. Turning to A5G G7A, the self-cleavage is 0.6. Take G7A A21G: the self-cleavage turned out to be 0.33.

G73C: the self-cleavage was 1.25. Take G22C C29U: the self-cleavage came out at 0.1. For the variant C11G G73C, the self-cleavage was 0.97. Consider C44A U69G, for which the self-cleavage turned out to be 0.13. Regarding A3U U60A, the self-cleavage was found to be 0.19.

Consider A3G U69C, for which the self-cleavage was 0.6. As to A15G G36A, the self-cleavage came to 0.34.

Turning to A15G U66G, the self-cleavage was determined as 0.35.

Turning to A5U G10C, the self-cleavage is 0.5. For G10U U69C, the self-cleavage was 0.07. For C23G U69C, the self-cleavage stood at 0.08.

For the variant A18G G53U, the self-cleavage was 0.56. C40U C44A: the self-cleavage is 0.52. As to C32U U80C, the self-cleavage was determined as 0.44. In the case of U1C C40U it was 0.3; in that of A28U U78A, 0.51; in that of A13G A64U, 0.32. With C37U U54A, the self-cleavage was 0.82. The same measure for G8U U80C: 0.16; for U31C C62A: 0.23. For A18G U31A, the self-cleavage worked out at 0.41. The same measure for A64G U67G: 0.44; for U41C U67C: 0.33. Turning to U41C U67A, the self-cleavage was determined as 0.53. For U41G A45G, the self-cleavage stood at 0.25. For the variant A47G A65U, the self-cleavage was 0.49. In the case of A13U C39A it was 0.15; in that of A35G A47G, 1.26. With G46A A65U, the self-cleavage amounted to 0.43. The same measure for A64U U66C: 0.31; for G22U: 0.27; for A56G U58G: 0.22. The same measure for C14A U51A: 1.1. C40U U48C: the self-cleavage turned out to be 0.25.

For A2C A77G, the self-cleavage stood at 1.01. As to U51G A57G, the self-cleavage was determined as 0.74. A28G U41C: the self-cleavage came out at 0.6. As for U66C C79U, the self-cleavage worked out at 0.39. For A20C U78C, the self-cleavage was 0.4.

Consider U26C U54A, for which the self-cleavage was found to be 0.5. With U60C C62U, the self-cleavage came out at 0.33.

As for G8C U66C, the self-cleavage is 0.41. For U1A A21G, the self-cleavage worked out at 0.55.

In the case of A18G U48C, the self-cleavage was found to be 0.31. With G61A, the self-cleavage worked out at 0.75.

As to C34G U67C, the self-cleavage is 0.13. In the case of C34U U41C, the self-cleavage is 0.5. Consider G6C U26A, for which the self-cleavage is 0.47. With C40U A57U, the self-cleavage is 0.61.

Turning to A3U U74A, the self-cleavage came to 1.26. With A21G C50A, the self-cleavage was 0.57. Regarding A64G G73U, the self-cleavage turned out to be 1.35.

As for A20C A64G, the self-cleavage is 0.07. For A2U A18G, the self-cleavage amounted to 0.89. With G70A C71U, the self-cleavage was 0.41. In the case of C34U U48G it was 0.3. U25C C29G: the self-cleavage is 0.24. Regarding U31G U80A, the self-cleavage worked out at 0.59. Turning to G16U G61A, the self-cleavage is 0.18.

Regarding U1A C59U, the self-cleavage is 0.46.

Take A5G A15G: the self-cleavage turned out to be 0.6. Take A5G A15C: the self-cleavage stood at 0.83. With G6C U78C, the self-cleavage worked out at 0.48. A28G C34G: the self-cleavage came to 0.35. For A5U U66C, the self-cleavage turned out to be 0.45. Regarding A28G G61U, the self-cleavage came out at 0.5. For the variant G73U U80C, the self-cleavage is 1.28. A2G C11G: the self-cleavage worked out at 0.15.

Regarding A13G C14A, the self-cleavage amounted to 0.88.

U1A U74A: the self-cleavage stood at 1.25. For U1A U43G, the self-cleavage amounted to 0.54. In the case of A28C U31A, the self-cleavage is 0.55. In the case of U25A C59U it was 0.09; in that of C12A G24U, 0.33; in that of G42U A47G, 0.18. For A57G U80C, the self-cleavage was determined as 1. The same measure for C29G U41G: 0.15; for U60C A77U: 0.55; for U26A C71A: 0.2. Take A13G U49A: the self-cleavage worked out at 0.41. U1C G24C: the self-cleavage was found to be 0.31.

As for U41C U66G, the self-cleavage was determined as 0.58. In the case of U31G A45C it was 0.33; in that of A20G G33A, 0.35; in that of A18U G36U, 0.19. In the case of G19U A64U it was 0.15. For the variant A64U A77U, the self-cleavage is 0.46.

As for G10C A28C, the self-cleavage was found to be 0.16.
